# Measurements taken from patent US20030087317.
# Columns and labels:
# [1] = tested on: histone
# [2] = tested on: myelin basic protein
# Sequence of human NIM1 kinase-GST (recombinant Nim1-GST, expressed in Sf21 insect cells from pVL1392/GST-NIM1) (chain, as listed by the source): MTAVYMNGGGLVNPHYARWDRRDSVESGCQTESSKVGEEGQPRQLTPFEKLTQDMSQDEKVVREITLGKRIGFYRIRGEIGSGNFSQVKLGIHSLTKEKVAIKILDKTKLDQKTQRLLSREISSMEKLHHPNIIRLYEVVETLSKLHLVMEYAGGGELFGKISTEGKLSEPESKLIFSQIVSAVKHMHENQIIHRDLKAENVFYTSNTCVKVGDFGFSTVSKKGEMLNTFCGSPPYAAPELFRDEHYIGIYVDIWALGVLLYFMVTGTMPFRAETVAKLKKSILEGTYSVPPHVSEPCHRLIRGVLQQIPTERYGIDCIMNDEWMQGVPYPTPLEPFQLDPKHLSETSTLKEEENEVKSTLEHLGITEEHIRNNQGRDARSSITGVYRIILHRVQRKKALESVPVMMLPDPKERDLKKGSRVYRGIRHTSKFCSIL
substance,measurement,setting,value
"human NIM1 kinase-GST (recombinant Nim1-GST, expressed in Sf21 insect cells from pVL1392/GST-NIM1)","phosphorylation of substrate in in vitro kinase assay ([gamma-32P]-ATP, SDS-PAGE, autoradiography)",[1],"phosphorylated its substrates MBP, lane 2, and HIST. 1, lane 4"
same,"phosphorylation of substrate in in vitro kinase assay ([gamma-32P]-ATP, SDS-PAGE, autoradiography)",[2],"phosphorylated its substrates MBP, lane 2, and HIST. 1, lane 4"
